# Measured values as given in PMC9079162 (Computational and Structural Biotechnology Journal, 2022).
# Biological target: human complement regulatory factor H (hfH) (human, UniProt P08603 19-1231)
# Assay: SPR
# human complement regulatory factor H (hfH), sequence (P08603 19-1231): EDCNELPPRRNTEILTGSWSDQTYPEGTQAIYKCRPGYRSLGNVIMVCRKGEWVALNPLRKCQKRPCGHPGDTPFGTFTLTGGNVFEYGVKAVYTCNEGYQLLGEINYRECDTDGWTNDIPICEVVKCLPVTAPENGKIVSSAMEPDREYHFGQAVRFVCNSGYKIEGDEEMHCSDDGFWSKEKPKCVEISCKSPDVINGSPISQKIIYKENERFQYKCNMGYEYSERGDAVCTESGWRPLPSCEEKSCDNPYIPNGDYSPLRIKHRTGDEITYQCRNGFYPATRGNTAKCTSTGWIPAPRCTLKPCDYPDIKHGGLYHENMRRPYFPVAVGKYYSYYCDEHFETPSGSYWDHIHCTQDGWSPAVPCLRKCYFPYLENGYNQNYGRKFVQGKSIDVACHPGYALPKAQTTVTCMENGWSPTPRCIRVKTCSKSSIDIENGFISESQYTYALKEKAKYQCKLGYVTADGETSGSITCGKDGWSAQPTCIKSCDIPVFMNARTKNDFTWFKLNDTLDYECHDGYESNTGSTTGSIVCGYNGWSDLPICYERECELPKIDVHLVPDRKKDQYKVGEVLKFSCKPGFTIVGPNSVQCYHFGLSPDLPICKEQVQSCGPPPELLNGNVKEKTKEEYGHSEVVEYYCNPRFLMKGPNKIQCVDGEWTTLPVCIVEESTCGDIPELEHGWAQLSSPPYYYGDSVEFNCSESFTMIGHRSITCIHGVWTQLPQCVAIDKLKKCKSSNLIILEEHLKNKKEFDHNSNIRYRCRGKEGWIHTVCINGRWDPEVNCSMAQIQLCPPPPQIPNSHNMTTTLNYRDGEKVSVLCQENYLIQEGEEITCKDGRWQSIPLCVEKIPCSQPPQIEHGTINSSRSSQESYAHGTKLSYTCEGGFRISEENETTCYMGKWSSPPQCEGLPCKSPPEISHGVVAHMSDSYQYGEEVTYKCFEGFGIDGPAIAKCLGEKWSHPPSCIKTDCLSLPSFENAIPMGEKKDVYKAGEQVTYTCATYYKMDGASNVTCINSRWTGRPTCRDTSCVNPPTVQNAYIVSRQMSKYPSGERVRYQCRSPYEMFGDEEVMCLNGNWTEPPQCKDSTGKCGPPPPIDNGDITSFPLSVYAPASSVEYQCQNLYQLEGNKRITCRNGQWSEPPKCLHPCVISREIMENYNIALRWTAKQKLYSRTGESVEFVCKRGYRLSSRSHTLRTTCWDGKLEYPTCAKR
binder,measurement,value
factor H binding protein (fHbp) variant1 (natural protein) CSSGGGGVAADIGAGLADALTAPLDHKDKGLQSLTLDQSVRKNEKLKLAAQGAEKTYGNGDSLNTGKLKNDKVSRFDFIRQIEVDGQLITLESGEFQVYKQSHSALTAFQTEQIQDSEHSGKMVAKRQFRIGDIAGEHTSFDKLPEGGRATYRGTAFGSDDAGGKLTYTIDFAAKQGNGKIEHLKSPELNVDLAAADIKPDGKRHAVISGSVLYNQAEKGSYSLGIFGGKAQEVAGSAEVKTVNGIRHIGLAAKQ,Kd,22.7 nM
